# Results as given in publication PMC5861054, “Crystal structure of an intramembranal phosphatase central to bacterial cell-wall peptidoglycan biosynthesis and lipid recycling” (Nature Communications, 2018).
# B1: Undecaprenyl pyrophosphate phosphatase (UppP) from Escherichia coli (enzyme, Escherichia coli K-12, UniProt P60932 1-273, looked up)
# chain: MSDMHSLLIAAILGVVEGLTEFLPVSSTGHMIIVGHLLGFEGDTAKTFEVVIQLGSILAVVVMFWRRLFGLIGIHFGRPLQHEGESKGRLTLIHILLGMIPAVVLGLLFHDTIKSLFNPINVMYALVVGGLLLIAAECLKPKEPRAPGLDDMTYRQAFMIGCFQCLALWPGFSRSGATISGGMLMGVSRYAASEFSFLLAVPMMMGATALDLYKSWGFLTSGDIPMFAVGFITAFVVALIAIKTFLQLIKRISFIPFAIYRFIVAAAVYVVFF
# notes: Undecaprenyl pyrophosphate phosphatase (UppP, BacA), Escherichia coli K-12 (ATCC 10798), full length, residues 1-273; Integral membrane protein, in DDM detergent (SEC, cross-linking) or monoolein lipid cubic/sponge phase (crystals); also called EcUppP; BacA; source: E. coli C41, solubilized from membranes in DDM, purified (Ni-NTA, thrombin cleavage, gel filtration); not shown: His6, N-terminal, …
# Target: the molecule itself
# Test: cross-linking; purified UppP, room temperature 30 min, 50-fold molar excess DSS or EGS, quenched with 50 mM Tris, 12% SDS-PAGE
protein,measurement,value
B1,stoichiometry N,2
